In patent publication US12427210B2, “Compounds comprising a fibroblast activation protein ligand and use thereof” (priority 2019, dated 2025):

B1: Hex-[Cys(tMeBn(DOTA-PP))-Pro-Pro-Thr-Gln-Phe-Cys]-Asp-NH2 (3BP-3407) (peptide)
peptide: CPPTQFCD
modifications: here or on the partner: N-terminal hexanoyl (Hex); Cys1 and Cys7 cyclised through tMeBn carrying DOTA-PP; C-terminal amide
B2: Hex-[Cys(tMeBn(DOTA-AET))-Pro-Pro-Thr-Gln-Phe-Cys]-OH (3BP-3554) (peptide)
peptide: CPPTQFC
modifications: here or on the partner: N-terminal hexanoyl (Hex); Cys1 and Cys7 cyclised through tMeBn carrying DOTA-AET; free C-terminal acid (-OH)

Experiments:
Conditions in all cases: remark: other sources report otherwise
[1] = biological target: 5-HT transporter (h) (human), P31645; experiment: radioligand displacement, compound at 10 µM
[2] = biological target: T1, AR (h) (human), P10275; experiment: radioligand displacement, compound at 10 µM
T1 chain: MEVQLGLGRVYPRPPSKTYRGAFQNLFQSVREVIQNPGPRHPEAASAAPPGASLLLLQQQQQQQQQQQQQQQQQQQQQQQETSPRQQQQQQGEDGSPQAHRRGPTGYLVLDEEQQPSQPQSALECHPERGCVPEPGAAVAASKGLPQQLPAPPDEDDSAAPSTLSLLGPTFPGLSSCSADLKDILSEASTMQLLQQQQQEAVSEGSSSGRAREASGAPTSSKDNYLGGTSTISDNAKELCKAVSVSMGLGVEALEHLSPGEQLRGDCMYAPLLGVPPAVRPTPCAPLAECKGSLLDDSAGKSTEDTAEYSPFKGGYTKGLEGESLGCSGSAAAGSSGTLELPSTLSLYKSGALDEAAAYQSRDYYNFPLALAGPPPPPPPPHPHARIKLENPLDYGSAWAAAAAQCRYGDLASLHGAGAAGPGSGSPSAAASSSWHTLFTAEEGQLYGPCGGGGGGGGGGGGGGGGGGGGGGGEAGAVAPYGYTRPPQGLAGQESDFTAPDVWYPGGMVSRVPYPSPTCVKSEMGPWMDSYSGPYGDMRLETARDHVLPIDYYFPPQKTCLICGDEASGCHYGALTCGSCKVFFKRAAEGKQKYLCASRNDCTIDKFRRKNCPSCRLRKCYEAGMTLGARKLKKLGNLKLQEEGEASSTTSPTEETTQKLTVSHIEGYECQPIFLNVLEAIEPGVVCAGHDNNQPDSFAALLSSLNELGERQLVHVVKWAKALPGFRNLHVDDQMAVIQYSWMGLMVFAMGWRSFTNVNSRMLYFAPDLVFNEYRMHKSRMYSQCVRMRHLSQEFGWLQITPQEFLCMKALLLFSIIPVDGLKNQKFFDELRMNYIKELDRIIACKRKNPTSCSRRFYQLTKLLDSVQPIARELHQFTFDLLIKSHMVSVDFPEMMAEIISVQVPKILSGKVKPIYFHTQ

[3] = biological target: T2, GR (h) (human), P04150; experiment: radioligand displacement, compound at 10 µM
T2 chain: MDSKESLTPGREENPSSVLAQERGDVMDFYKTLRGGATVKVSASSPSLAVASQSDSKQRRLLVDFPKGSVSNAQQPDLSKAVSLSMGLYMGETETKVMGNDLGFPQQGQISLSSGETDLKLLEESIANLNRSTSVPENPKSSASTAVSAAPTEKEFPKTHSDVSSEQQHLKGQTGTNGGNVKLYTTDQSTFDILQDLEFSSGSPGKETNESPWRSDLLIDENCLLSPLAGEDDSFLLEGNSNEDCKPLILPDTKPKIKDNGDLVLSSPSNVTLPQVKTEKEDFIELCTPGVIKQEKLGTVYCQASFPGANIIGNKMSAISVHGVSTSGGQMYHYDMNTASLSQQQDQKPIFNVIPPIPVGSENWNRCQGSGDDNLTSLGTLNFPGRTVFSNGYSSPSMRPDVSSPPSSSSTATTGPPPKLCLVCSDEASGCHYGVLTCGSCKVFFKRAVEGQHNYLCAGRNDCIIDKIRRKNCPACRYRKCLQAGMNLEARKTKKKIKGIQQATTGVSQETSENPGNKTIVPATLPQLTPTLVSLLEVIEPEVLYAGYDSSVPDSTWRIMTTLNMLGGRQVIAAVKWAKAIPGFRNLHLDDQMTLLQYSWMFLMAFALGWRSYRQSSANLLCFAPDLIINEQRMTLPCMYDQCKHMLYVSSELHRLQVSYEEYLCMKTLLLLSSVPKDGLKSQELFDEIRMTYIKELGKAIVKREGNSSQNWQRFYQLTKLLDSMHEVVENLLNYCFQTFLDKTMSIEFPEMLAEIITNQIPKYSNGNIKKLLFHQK

[4] = biological target: T3, Potassium Channel hERG (human) (human), Q12809; experiment: displacement of [3H] Dofetilide, compound at 10 µM
T3 chain: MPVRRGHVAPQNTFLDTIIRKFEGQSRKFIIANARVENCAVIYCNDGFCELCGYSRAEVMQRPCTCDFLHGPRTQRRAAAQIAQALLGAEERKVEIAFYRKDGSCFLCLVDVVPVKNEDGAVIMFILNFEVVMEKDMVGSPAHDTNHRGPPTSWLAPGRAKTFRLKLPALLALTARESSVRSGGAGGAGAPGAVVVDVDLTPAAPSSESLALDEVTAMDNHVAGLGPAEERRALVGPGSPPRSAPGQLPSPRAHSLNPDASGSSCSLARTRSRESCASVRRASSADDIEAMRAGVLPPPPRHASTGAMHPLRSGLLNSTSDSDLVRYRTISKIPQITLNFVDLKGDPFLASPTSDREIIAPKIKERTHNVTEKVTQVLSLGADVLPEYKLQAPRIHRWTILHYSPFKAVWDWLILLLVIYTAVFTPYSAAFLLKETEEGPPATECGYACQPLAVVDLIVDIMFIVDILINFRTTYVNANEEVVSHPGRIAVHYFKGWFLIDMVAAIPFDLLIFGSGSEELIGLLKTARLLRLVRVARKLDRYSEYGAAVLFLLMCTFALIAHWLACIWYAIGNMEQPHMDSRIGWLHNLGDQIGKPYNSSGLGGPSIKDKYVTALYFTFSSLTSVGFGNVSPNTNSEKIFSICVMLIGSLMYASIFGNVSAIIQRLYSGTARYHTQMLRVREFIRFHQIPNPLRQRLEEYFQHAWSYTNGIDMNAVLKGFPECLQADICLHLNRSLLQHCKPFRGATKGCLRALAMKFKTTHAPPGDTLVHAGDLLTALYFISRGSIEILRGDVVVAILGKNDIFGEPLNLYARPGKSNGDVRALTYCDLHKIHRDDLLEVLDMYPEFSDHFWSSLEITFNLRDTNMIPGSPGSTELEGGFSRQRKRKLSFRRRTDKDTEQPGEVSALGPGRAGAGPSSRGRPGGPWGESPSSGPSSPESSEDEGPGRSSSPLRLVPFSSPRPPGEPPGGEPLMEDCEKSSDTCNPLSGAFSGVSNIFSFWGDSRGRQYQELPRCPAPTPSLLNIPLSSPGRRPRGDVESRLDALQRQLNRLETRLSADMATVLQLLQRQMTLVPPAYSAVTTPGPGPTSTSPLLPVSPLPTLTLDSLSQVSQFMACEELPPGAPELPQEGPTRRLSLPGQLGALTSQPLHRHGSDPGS

Row | Binder | % Inhibition of Specific Binding [1] [%] | % Inhibition of Specific Binding [2] [%] | % Inhibition of Specific Binding [3] [%] | % Inhibition of Specific Binding [4] [%]
1 | B1 | -3 | 3 | -2 | 2
2 | B2 | -8 | -5 | 0 | 6
